# ± gives the uncertainty stated by the source.
# B1: Chromodomain-helicase-DNA-binding protein 3, residues 374 to 426; numbered along this chain, Q12873 (parent)
# chain: YETDHQDYCEVCQQGGEIILCDTCPRAYHLVCLDPELDRAPEGKWSCPHCEKE
# Variants of: B1
# Assay: abundance fitness (aPCA) (normalised: wild type 0, dead -1); higher = more abundant; growth selection in yeast, the domain comes from the species named
# Details: Homo sapiens
row,Variant,abundance fitness
1,E42K,-0.181 ± 0.22
2,E42D,-0.484 ± 0.19
3,E42H,0.164 ± 0.21
4,E42P,-0.138 ± 0.2
5,E42T,-0.173 ± 0.2
6,E42W,-0.396 ± 0.14
7,E42Q,-0.088 ± 0.17
8,E42V,-0.044 ± 0.1
9,E42Y,-0.219 ± 0.16
10,E42S,-0.06 ± 0.12
11,E42F,-0.296 ± 0.17
12,E42R,-0.232 ± 0.11
13,E42A,-0.171 ± 0.1
14,E42M,-0.203 ± 0.17
15,E42G,0.003 ± 0.1
16,E42C,-0.005 ± 0.13
17,E42L,0.066 ± 0.1
18,C32M,-0.94 ± 0.18
19,C32Q,-0.821 ± 0.15
20,C32P,-0.957 ± 0.11
21,C32T,-0.948 ± 0.12
22,C32V,-1.2 ± 0.15
23,C32N,-0.797 ± 0.13
24,C32W,-0.502 ± 0.15

row,Variant,abundance fitness
1,C32R,-1.06 ± 0.12
2,C32S,-0.68 ± 0.086
3,C32L,-0.986 ± 0.095
4,E51L,-0.039 ± 0.1
5,E51C,-0.137 ± 0.17
6,E51A,-0.215 ± 0.095
7,E51W,-0.501 ± 0.18
8,E51S,-0.158 ± 0.14
9,E51I,-0.438 ± 0.26
10,E51D,-0.37 ± 0.21
11,E51M,-0.396 ± 0.16
12,E51F,-0.205 ± 0.23
13,E51Q,-0.533 ± 0.2
14,E51P,-0.194 ± 0.15
15,E51Y,-0.554 ± 0.37
16,E51R,-0.215 ± 0.12
17,E51T,-0.156 ± 0.14
18,A40E,0.13 ± 0.12
19,A40W,-0.346 ± 0.17
20,A40K,-0.188 ± 0.19
21,A40P,-0.138 ± 0.15
22,A40G,-0.398 ± 0.1
23,A40R,-0.129 ± 0.11
24,A40M,-0.004 ± 0.13

row,Variant,abundance fitness
1,A40V,-0.081 ± 0.1
2,A40N,-0.169 ± 0.26
3,A40T,-0.162 ± 0.17
4,A40H,-0.412 ± 0.22
5,A40L,-0.107 ± 0.1
6,A40C,-0.33 ± 0.13
7,A40D,0.026 ± 0.19
8,A40F,-0.44 ± 0.16
9,A40Q,0.126 ± 0.14
10,A40S,-0.221 ± 0.1
11,A40Y,-0.38 ± 0.17
12,P35H,-0.052 ± 0.31
13,P35K,-0.183 ± 0.15
14,P35M,-0.095 ± 0.15
15,P35V,0.029 ± 0.088
16,P35D,0.039 ± 0.14
17,P35S,-0.068 ± 0.11
18,P35C,-0.117 ± 0.17
19,P35G,-0.044 ± 0.1
20,P35Y,0.015 ± 0.17
21,P35T,-0.013 ± 0.14
22,P35W,-0.167 ± 0.16
23,P35E,-0.306 ± 0.11
24,P35I,-0.3 ± 0.23

row,Variant,abundance fitness
1,P35L,-0.11 ± 0.098
2,P35N,-0.196 ± 0.24
3,S46G,-0.03 ± 0.087
4,S46A,-0.064 ± 0.11
5,S46L,-0.033 ± 0.1
6,S46Y,0.08 ± 0.15
7,S46W,-0.043 ± 0.17
8,S46D,-0.135 ± 0.14
9,S46H,-0.526 ± 0.32
10,S46P,-0.327 ± 0.19
11,S46E,-0.122 ± 0.12
12,S46C,-0.308 ± 0.14
13,S46V,-0.085 ± 0.1
14,S46Q,0.127 ± 0.18
15,S46K,-0.084 ± 0.17
16,S46I,0.12 ± 0.16
17,S46T,-0.073 ± 0.14
18,S46M,-0.186 ± 0.18
19,S46R,-0.037 ± 0.097
20,S46F,-0.104 ± 0.14
21,D34I,-0.383 ± 0.14
22,D34H,-0.385 ± 0.14
23,D34G,-0.156 ± 0.099
24,D34Y,-0.327 ± 0.13

row,Variant,abundance fitness
1,D34Q,-0.112 ± 0.15
2,D34W,-0.747 ± 0.22
3,D34K,-0.079 ± 0.12
4,D34N,-0.189 ± 0.11
5,D34E,-0.011 ± 0.11
6,D34P,-0.089 ± 0.11
7,D34M,-0.494 ± 0.13
8,D34V,-0.1 ± 0.08
9,D34C,-0.316 ± 0.15
10,D34L,-0.083 ± 0.092
11,D34A,-0.198 ± 0.082
12,D34F,-0.287 ± 0.12
13,D34S,-0.127 ± 0.091
14,D34R,-0.197 ± 0.093
15,P41M,-0.202 ± 0.15
16,P41L,0.015 ± 0.1
17,P41R,-0.093 ± 0.092
18,P41G,0.028 ± 0.097
19,P41K,-0.25 ± 0.22
20,P41D,-0.368 ± 0.2
21,P41Q,-0.073 ± 0.17
22,P41E,-0.092 ± 0.15
23,P41N,-0.026 ± 0.19
24,P41F,-0.25 ± 0.2

row,Variant,abundance fitness
1,P41A,-0.114 ± 0.12
2,P41I,-0.083 ± 0.17
3,P41T,-0.06 ± 0.14
4,P41S,-0.045 ± 0.11
5,P41Y,-0.153 ± 0.19
6,P41H,-0.374 ± 0.23
7,P41C,-0.344 ± 0.17
8,P41W,-0.317 ± 0.12
9,E36I,-0.145 ± 0.26
10,E36F,-0.083 ± 0.19
11,E36L,-0.114 ± 0.11
12,E36S,-0.335 ± 0.13
13,E36W,-0.478 ± 0.2
14,E36A,-0.029 ± 0.13
15,E36C,0.182 ± 0.19
16,E36T,-0.172 ± 0.26
17,E36Q,-0.193 ± 0.15
18,E36R,0.018 ± 0.11
19,E36P,-0.039 ± 0.15
20,E36H,-0.15 ± 0.23
21,E36G,-0.009 ± 0.1
22,E36Y,-0.405 ± 0.32
23,E36D,-0.507 ± 0.2
24,E36N,0.143 ± 0.27

row,Variant,abundance fitness
1,E36M,-0.024 ± 0.2
2,E36V,-0.018 ± 0.1
3,L33T,-0.208 ± 0.1
4,L33Y,-0.133 ± 0.15
5,L33G,0.07 ± 0.1
6,L33C,0.072 ± 0.12
7,L33F,-0.449 ± 0.14
8,L33R,-0.39 ± 0.091
9,L33I,-0.214 ± 0.14
10,L33V,-0.182 ± 0.13
11,L33E,-0.365 ± 0.18
12,L33D,-0.755 ± 0.29
13,L33A,-0.12 ± 0.12
14,L33H,-0.146 ± 0.15
15,L33M,-0.148 ± 0.13
16,L33N,-0.326 ± 0.14
17,L33K,-0.663 ± 0.15
18,L33S,-0.286 ± 0.11
19,L33P,-0.427 ± 0.12
20,P48F,-0.528 ± 0.24
21,P48D,-0.416 ± 0.18
22,P48M,-0.07 ± 0.12
23,P48N,-0.014 ± 0.18
